Experimental data taken from patent publication US20150258192A1, “COMPOSITIONS AND METHODS FOR PREVENTING OR TREATING CHRONIC LUNG ALLOGRAFT DYSFUNCTION (CLAD) AND IDIOPATHIC PULMONARY FIBROSIS (IPF)” (priority 2014, published 2015).
No end group written: not given here.

How the values were obtained:
Assay in all cases: Kinase Profiling Assay
Type in all cases: biochemical
Conditions in all cases: peptide 100 μM
Ax1(h) = Ax1(h) (Homo sapiens, UniProt P30530)
In short: (§1)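 In this 266-kinase specificity panel, every measurement was duplicated. Transfer of labeled phosphate from ATP to a cationic substrate was quantified after the substrate adhered to an anionic filter membrane and was scintillation-counted, then related to a full-activity control.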

EphB1(h) = target: T1, EphB1(h) (Homo sapiens, UniProt P54762)
T1 sequence (P54762 18-984): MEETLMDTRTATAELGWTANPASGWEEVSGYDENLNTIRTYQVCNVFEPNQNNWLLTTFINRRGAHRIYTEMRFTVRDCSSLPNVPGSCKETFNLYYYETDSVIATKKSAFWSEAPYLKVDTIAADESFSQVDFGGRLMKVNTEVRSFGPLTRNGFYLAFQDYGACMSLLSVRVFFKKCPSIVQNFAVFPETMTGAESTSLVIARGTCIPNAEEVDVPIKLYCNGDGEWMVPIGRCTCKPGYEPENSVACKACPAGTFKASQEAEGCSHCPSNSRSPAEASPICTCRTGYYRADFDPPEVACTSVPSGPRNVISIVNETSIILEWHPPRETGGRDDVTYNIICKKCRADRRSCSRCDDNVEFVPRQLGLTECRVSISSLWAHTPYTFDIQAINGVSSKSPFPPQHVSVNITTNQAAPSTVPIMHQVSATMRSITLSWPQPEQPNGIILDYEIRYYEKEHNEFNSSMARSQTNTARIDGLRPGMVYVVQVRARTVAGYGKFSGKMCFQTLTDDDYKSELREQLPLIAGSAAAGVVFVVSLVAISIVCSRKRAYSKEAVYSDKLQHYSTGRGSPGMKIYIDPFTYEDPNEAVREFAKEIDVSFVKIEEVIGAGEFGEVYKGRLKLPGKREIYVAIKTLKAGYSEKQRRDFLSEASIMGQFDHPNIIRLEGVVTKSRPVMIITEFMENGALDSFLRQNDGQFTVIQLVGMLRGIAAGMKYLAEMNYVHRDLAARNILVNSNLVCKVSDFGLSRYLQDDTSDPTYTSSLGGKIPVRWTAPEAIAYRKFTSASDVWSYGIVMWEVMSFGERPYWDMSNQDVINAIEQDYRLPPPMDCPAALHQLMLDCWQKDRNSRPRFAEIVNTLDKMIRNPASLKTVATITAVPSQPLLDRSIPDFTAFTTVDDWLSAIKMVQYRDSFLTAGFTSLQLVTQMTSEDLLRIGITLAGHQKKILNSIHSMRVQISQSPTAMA
In short: as §1

ErbB4(h) = ErbB4(h) (Homo sapiens, UniProt Q15303)
In short: as §1

Fes(h) = Fes(h) (Homo sapiens, UniProt P07332)
In short: as §1

Fgr(h) = Fgr(h) (Homo sapiens, UniProt P09769)
In short: as §1

PAK2(h) = target: T2, PAK2(h) (Homo sapiens, UniProt Q13177)
T2 construct: purchased Millipore
In short: as §1

PKG1α(h) = target: T3, PKG1α(h) (Homo sapiens, UniProt Q13976)
T3 sequence (Q13976 1-671): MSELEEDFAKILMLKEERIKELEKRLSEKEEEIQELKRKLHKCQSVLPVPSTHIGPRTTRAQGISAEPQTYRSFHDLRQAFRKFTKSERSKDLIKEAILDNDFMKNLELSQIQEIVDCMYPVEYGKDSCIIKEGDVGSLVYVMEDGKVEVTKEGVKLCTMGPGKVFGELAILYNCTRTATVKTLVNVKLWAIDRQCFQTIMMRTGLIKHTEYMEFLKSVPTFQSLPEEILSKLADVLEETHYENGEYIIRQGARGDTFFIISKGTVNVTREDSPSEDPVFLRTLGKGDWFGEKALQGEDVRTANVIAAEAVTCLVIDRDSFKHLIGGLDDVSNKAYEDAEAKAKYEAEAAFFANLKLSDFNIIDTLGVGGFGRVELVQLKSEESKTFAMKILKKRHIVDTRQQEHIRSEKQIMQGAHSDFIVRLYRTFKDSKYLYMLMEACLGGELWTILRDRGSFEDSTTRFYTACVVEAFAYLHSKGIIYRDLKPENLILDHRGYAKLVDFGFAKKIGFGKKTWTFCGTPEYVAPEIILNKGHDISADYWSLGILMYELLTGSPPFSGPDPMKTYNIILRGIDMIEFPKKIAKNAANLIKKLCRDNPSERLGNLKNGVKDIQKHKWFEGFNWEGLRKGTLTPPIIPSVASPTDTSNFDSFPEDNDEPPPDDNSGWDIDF
In short: as §1

RIPK2(h) = RIPK2(h) (Homo sapiens, UniProt O43353)
In short: as §1

ErbB4(h), sequence (Q15303 26-1308): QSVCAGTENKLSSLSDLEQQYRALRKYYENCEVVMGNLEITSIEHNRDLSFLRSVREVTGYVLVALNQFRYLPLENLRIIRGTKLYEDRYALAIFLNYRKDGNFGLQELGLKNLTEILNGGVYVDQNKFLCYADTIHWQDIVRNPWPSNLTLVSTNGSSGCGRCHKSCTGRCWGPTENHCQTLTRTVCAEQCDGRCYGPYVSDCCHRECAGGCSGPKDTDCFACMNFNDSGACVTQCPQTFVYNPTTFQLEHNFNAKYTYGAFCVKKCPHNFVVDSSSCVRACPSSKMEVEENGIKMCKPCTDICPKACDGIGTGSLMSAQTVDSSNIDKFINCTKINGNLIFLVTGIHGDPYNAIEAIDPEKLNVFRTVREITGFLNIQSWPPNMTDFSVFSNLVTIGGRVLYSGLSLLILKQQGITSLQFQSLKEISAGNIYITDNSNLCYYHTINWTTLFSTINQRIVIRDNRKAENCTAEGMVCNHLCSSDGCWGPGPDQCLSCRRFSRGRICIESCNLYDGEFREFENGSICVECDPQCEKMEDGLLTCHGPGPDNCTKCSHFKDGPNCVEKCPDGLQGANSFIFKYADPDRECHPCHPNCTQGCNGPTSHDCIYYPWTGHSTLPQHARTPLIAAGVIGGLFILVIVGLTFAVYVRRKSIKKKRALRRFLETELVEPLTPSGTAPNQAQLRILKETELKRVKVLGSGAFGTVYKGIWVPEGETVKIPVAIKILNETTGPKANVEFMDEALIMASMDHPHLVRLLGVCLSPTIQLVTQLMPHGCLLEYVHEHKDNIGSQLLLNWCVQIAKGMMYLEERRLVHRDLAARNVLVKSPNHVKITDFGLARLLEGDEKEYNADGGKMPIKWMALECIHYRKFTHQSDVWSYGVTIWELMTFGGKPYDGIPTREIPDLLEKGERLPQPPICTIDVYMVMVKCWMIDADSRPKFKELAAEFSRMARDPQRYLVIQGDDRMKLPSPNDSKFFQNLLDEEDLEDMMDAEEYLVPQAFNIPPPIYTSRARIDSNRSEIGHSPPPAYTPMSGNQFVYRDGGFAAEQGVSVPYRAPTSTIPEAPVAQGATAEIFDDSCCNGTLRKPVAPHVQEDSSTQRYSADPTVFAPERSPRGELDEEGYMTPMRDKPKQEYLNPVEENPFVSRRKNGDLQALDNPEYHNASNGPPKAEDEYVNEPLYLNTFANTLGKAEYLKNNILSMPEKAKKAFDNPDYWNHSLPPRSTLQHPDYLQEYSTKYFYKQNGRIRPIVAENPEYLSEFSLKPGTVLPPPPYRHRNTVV
Fes(h), sequence (P07332 whole entry): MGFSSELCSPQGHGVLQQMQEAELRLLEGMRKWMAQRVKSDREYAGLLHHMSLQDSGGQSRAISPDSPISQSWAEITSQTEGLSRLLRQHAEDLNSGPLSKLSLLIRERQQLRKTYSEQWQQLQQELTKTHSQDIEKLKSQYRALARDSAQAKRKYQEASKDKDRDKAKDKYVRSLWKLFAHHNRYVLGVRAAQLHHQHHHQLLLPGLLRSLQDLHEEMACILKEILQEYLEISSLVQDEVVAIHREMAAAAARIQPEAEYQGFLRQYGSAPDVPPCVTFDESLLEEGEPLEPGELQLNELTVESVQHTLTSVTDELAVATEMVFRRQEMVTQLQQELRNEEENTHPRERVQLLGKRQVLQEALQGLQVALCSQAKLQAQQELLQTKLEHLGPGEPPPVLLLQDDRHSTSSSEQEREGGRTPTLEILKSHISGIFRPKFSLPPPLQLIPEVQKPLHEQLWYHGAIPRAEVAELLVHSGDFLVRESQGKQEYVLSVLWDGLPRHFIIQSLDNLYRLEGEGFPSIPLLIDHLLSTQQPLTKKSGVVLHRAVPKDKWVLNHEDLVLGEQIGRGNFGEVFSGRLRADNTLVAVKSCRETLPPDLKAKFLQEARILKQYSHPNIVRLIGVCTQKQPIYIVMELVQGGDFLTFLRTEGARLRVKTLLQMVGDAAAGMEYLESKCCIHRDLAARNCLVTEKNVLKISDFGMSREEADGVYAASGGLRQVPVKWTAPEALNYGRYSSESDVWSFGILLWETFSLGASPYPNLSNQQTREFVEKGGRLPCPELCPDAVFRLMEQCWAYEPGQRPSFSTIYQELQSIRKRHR
T2 sequence (Q13177 whole entry): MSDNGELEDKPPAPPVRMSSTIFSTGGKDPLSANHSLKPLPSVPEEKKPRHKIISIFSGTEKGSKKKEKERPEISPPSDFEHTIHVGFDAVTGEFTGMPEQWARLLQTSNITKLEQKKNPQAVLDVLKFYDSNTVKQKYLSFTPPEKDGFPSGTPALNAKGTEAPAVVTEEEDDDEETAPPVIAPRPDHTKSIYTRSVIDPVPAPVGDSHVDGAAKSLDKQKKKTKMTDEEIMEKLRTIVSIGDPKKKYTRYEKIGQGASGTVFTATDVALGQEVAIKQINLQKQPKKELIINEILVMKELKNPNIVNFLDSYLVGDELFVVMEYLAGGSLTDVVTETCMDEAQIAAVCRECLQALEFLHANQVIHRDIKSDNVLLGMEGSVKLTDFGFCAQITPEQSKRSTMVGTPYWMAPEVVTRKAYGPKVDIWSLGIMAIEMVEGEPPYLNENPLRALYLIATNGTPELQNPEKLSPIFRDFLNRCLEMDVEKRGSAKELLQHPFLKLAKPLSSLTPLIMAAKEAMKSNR
RIPK2(h), sequence (O43353 whole entry): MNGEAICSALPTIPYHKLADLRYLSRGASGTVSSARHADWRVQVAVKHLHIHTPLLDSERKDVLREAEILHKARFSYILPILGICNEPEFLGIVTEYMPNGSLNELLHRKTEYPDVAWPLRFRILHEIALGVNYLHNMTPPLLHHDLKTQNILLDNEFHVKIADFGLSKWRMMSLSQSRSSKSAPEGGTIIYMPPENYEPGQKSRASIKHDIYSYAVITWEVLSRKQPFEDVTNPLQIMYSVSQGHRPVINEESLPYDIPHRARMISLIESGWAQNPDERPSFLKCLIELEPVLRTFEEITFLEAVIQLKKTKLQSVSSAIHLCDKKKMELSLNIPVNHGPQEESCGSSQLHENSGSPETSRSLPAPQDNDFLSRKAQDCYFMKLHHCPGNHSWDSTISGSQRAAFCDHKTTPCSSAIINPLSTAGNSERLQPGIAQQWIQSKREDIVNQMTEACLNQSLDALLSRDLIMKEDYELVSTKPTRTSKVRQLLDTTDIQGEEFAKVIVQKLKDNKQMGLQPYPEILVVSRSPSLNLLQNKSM

Row | Sequence | % activity (Ax1(h)) | % activity (EphB1(h)) | % activity (ErbB4(h)) | % activity (Fes(h)) | % activity (Fgr(h)) | % activity (PAK2(h)) | % activity (PKG1α(h)) | % activity (RIPK2(h))
1 | FAKLAARLYRKALARQLGVAA [MMI-0300] | 52% | 44% | 40% | 20% | 60% | 65% | 64% | 97%
2 | HRRIKAWLKKIKALARQLGVAA (Mammal) [MMI-0500] | 12% | 37% | 2% | 23% |  | 44% | 25% | 30%
3 | KAFAKLAARLYRKALARQLGVAA [MMI-0400] | 41% | 58% | 0% | 16% | 47% | 59% | 58% | 98%
4 | YARAAARQARAKALARQLGVAA [MMI-0100] | 81% | 99% | 73% |  |  | 71% | 82% | 
5 | YARAAARQARAKALNRQLGVA (Mammal) [MMI-0200] | 99% | 95% | 82% | 74% | 71% | 69% | 70% | 98%
